Source: patent publication US20110300113A1, “Death Receptor CD95 Controls Neurogenesis of Adult Neural Stem Cells in Vivo and in Vitro” (DEUTSCHES KREBSFORSCHUNGSZENTRUM, priority 2006, published 2011)

How the values were obtained:
[1] = system: human neural progenitor cells; test: Neuronal differentiation (β-III-tubulin) of human neural progenitor cells after growth factor removal; assay type: cell-based
Protocol: Immunostainings. Immunohistochemistry and Immunocytochemistry were performed as previously described. Primary antibodies used were anti GFP (chicken) (Ayes Labs) 1:1000, anti NeuN (mouse), (Chemicon) 1:200, anti β-III-tubulin (mouse) (Chemicon 1:200), anti GFAP (mouse) (Chemicon 1:200), active-β-Catenin (mouse) (P-Ser37 or P-Thr41; 1:800) (Upstate), phosphorylated GSK3β (P-Ser9-GSK3β, 1:1000). The mouse Pax6 antibody developed by A. Kawakami was obtained from the Developmental Studies Hybridoma Bank developed under auspices of the NICHD and maintained by The University of Iowa, Department of Biological Sciences, Iowa City, Iowa 52242. Secondary antibodies used were goat anti-rabbit alexa 488 (Molecular Probes) 1:500, goat anti-mouse rhodamine X (Dianova) 1:200, Dapi (Sigma) 1:3000, donkey anti-chicken FITC (Dianova) 1:200.
Human neural progenitor generation and culture. The human ES cell line H9.2 was cultivated on mitotically inactivated mouse embryonic fibroblasts (MEFs) in Knockout Dulbecco's Modified Eagle Medium (KO-DMEM, Gibco) containing 20% Knockout Serum Replacement, 1% non-essential amino acids, 1 mM I-glutamine, 0.1 mM β-mercaptoethanol (all from Gibco), and 4 ng/ml human basic fibroblast growth factor (FGF-2, Invitrogen). Cells were routinely passaged every four days by treatment with 100 units collagenase IV (Gibco) for one hour. […]

NSCs = test: Apoptosis and caspase activity in NSCs; assay type: cell-based, mouse
Protocol: For staining of intracellular markers, cells were harvested, fixed with 4% PFA for 10 min on ice, washed and permeabilized using 0.1% Saponin (Sigma-Aldrich) in PBS with 10% FCS (SAP). Cells were incubated with primary antibody or isotype for 30 min on ice. Cells were washed three time with SAP and incubated with secondary antibody for 30 min on ice. Cells were washed again three times with SAP and analysed. Antibodies used were: anti β-III-tubulin (Chemicon) 1:100, anti GFAP (Chemicon) 1:100 and isotype mouse IgG1 (Sigma) 1:20. Secondary antibody was goat anti-mouse PE 1:100 (Dianova). To quantify DNA fragmentation, cells detached with trypsin were centrifuged, washed and fixed with 70% ethanol at −20° C. for 1 h. Fixed cells were resuspended in a hypotonic lysis buffer (0.1% sodium citrate and 0.1% Triton X-100) containing […] of propidium iodide, incubated at 4° C. overnight. After final washings, all samples were analysed using a FACS-Calibur (Becton Dickinson) and CellQuest Software (Becton Dickinson).
Caspase Activity Assay. Apostat Intracellular Caspase Detection Caspase Activity Assay was purchased from R&D Systems. Assay was performed according to the manufacturers' instructions and analyzed using a FACSCalibur (Becton Dickinson) and CellQuest software (Becton Dickinson).

mouse adult SVZ NSCs = test: Gene expression by quantitative real-time PCR in adult SVZ NSCs; assay type: cell-based; conditions: 48 h after stimulation
Protocol: Real-time Quantitative PCR. 24 h cells after plating cells were stimulated with 1 activation unit of CD95L-T4. After 48 h RNA was isolated using the RNeasy Mini Kit (Qiagen). Real-time quantitative PCR was carried out using Sybr Green core kits (Eurogentec) and Uracil-N-glycosylase (Eurogentec). For determining CD95L induction after global ischemia, the hippocampi were dissected out and stored in RNAlater reagent (Ambion). RNA was extracted using the RNeasy Mini Kit (Qiagen). Real-time quantitative PCR was carried out using Sybr Green core kits (Eurogentec) and Uracil-N-glycosylase (Eurogentec). Primers used for quantitative real-time PCR were designed using Primer 3 software (http://fokker.wi.mit.edu/cgi-bin/primer3/primer3_www.cgi).

B1: CD95L: the ligand for CD95 (APO-1/Fas) (protein, listed as Homo sapiens)
chain: MQQPFNYPYPQIYWVDSSASSPWAPPGTVLPCPTSVPRRPGQRRPPPPPPPPPLPPPPPPPPLPPLPLPPLKKRGNHSTGLCLLVMFFMVLVALVGLGLGMFQLFHLQKELAELRESTSQMHTASSLEKQIGHPSPPPEKKELRKVAHLTGKSNSRSMPLEWEDTYGIVLLSGVKYKKGGLVINETGLYFVYSKVYFRGQSCNNLPLSHKVYMRNSKYPQDLVMMEGKMMSYCTTGQMWARSSYLGAVFNLTSADHLYVNVSELSLVNFEESQTFFGLYKL
modifications: CHAIN (1)..(281) This feature is the amino acid sequence for CD95L protein. CD95L is a ligand for CD95. CD95 is APO-1/Fas and a member of the tumor necrosis factor receptor superfamily.
Q: Which results are given for B1?
A: number of neurons / β-III-tubulin positive cells [1]: strikingly increased number of neurons; apoptosis (NSCs): could not detect apoptosis; Neurogenin (Ngn1) expression (mouse adult SVZ NSCs): much higher
